Test results published in PMC10819331.

test system: T1, MBP-Z3495 (LysR-type regulator) (Escherichia coli O157:H7 EDL933?), ORF:b652805f; assay: EMSA
T1 sequence: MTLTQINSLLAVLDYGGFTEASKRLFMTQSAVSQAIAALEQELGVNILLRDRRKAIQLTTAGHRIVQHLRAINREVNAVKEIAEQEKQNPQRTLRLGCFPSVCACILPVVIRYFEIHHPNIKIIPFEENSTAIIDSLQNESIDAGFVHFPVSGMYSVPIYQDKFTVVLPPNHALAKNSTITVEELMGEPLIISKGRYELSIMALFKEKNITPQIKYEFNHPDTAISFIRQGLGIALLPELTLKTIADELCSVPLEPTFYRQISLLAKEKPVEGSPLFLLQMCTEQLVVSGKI

Sequence	binding
AATTCCCGATTACGCATCGCACCATTGAGAAGTTTTATTTTATATGAGGATAACATTTTTAAATTTTATTCATCCTGGTGGTTGAACAATGAGAAAAAATATGGTGAACTTACATCGTCTAAGAATAGAGTAGAAAGGAAGCTGTTGTACAGTACTATTTAATGGAATATTCATAATTAAT (double strand) [LEE4 promoter]	no binding
GTTATCGCAGGGAGCCACACAGCGTGTGTTGGACGCGACTCAGCTTTACCTTGGTGAGATTGGTTATTCACCACTGTTAACGGCCGAAGAAGAAGTTTATTTTGCGCGTCGCGCACTGCGTGGAGATGTCGCCTCTCGCCGCCGGATGATCGAGAGTAACTTGCGTCTGGTGGTAAAA (double strand) [rpoS fragment]	no binding
TAAAAACTCTTCAACGTTTCTTTTAACTAAAAGATTCATCTGCAGGCTCTGAAGTAAGTATACGTGTGAATATTATTGCTTGAAAAAGCGTATTGGATAATATATACAGTATATGTACTTTATGTACATTGCAACTATTTAAATAATATAATAGTTGCCTATGGGATAATTTGGTTATTTATAACCAGGTAAATGTCTAAATTAGACAAAAGGAGAAAGATCAATGGAAGCAGCAAATTTAAGTCCTTCTGGTGCAGTAATGCCGCTGGCGACCTCACTCA (double strand) [LEE2/3 promoter]	no binding
